We go through 2 molecules from patent US20130330328A1 (AstraZeneca / MedImmune, published 2013).

In assay [1] the target is human CD20 (human) (UniProt P11836). Nature of the assay: flow cytometry, direct binding to Karpas-422 (NHL) cells, labeled goat anti-human secondary. (Flow cytometry measures light scatter and fluorescence of single cells or particles in a stream.)
Assay [2] shares this target. Nature of the assay: flow cytometry, direct binding to Toledo (DLCL) cells, labeled goat anti-human secondary.
For assay [3] the target is unchanged. Nature of the assay: flow cytometry, direct binding to Granta-519 (NHL/MCL) cells, labeled goat anti-human secondary.
The target is the same in assay [4]. Description: flow cytometry, direct binding to Namalwa (Burkitt) cells, labeled goat anti-human secondary.
For assay [5] the target is unchanged. Description: flow cytometry, direct binding to JVM-13 (CLL) cells, labeled goat anti-human secondary.
Assay [6] has the same target. Nature of the assay: flow cytometry, direct binding to Farage (DLCL) cells, labeled goat anti-human secondary.
Assay [7] has the same target. Description: flow cytometry, direct binding to Nalm-6 (ALL) cells, labeled goat anti-human secondary.
The target is the same in assay [8]. Description: cell-based or functional assay.
Assay [9] shares this target. Nature of the assay: flow cytometry, direct binding to Raji (Burkitt) cells, labeled goat anti-human secondary.
The next assay concerns the target T1, human CD19 (human, UniProt P15391 20-556).
T1 sequence (looked up): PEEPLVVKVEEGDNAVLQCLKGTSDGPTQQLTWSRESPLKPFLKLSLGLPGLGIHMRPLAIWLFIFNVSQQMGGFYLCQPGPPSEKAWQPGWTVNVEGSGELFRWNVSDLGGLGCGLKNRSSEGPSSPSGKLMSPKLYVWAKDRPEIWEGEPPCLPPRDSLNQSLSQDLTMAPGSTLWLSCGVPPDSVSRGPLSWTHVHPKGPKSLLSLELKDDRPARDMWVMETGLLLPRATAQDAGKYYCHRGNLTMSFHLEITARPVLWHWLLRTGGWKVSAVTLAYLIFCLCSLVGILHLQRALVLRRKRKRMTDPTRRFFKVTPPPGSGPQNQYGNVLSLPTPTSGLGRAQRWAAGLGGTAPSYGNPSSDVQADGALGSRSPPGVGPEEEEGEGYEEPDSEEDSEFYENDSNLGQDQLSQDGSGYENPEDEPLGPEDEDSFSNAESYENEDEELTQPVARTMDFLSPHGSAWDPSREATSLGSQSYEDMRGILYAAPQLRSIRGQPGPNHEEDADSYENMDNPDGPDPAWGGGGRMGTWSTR
Description: cell-based or functional assay.

human CD20 (human), sequence (P11836 whole entry): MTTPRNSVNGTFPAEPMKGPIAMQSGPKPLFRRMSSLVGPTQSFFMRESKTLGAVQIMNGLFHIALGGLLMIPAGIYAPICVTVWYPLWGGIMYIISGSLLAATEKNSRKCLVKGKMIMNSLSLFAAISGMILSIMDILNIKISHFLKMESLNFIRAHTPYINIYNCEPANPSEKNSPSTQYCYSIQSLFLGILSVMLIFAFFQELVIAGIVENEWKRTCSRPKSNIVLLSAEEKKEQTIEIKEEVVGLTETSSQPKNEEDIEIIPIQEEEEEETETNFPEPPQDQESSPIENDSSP

As to rituximab (antibody), in the assay with human CD20 (human) [1], the MFI at 1 µg/ml came to 45 MFI. The MFI at 1 µg/ml with human CD20 (human) [2] was 312 MFI. The MFI at 1 µg/ml with human CD20 (human) [3] was found to be 403 MFI. In addition, in the assay with human CD20 (human) [4], the MFI at 1 µg/ml stood at 298 MFI. The MFI at 1 µg/ml with human CD20 (human) [5] came out at 60 MFI. This molecule also registered an MFI at 1 µg/ml with human CD20 (human) [6] of 581 MFI. For the same molecule, the MFI at 1 µg/ml with human CD20 (human) [7] came out at 26 MFI. In the assay with human CD20 (human) [8], this molecule showed a % max. cell kill at 10 ug/ml, DB (DLCL) cells of 46%; a % max. cell kill at 10 ug/ml, Daudi (Burkitt) cells of 51%; a % max. cell kill at 10 ug/ml, Farage (DLCL) cells of 54%; a % max. cell kill at 10 ug/ml, JVM-2 (CLL) cells of 49%. In the assay with human CD20 (human) [8], the % max. cell kill at 10 ug/ml, JVM-13 (CLL) cells came to 50%; the % max. cell kill at 10 ug/ml, Karpas-422 (NHL) cells was 5%; the % max. cell kill at 10 ug/ml, MeC2 (CLL) cells stood at 42%; the % max. cell kill at 10 ug/ml, Nalm-6 (ALL) cells turned out to be 14%. In the assay with human CD20 (human) [8], the % max. cell kill at 10 ug/ml, Namalwa (Burkitt) cells was found to be 7%; the % max. cell kill at 10 ug/ml, Raji (Burkitt) cells turned out to be 40%; the % max. cell kill at 10 ug/ml, Toledo (DLCL) cells came out at 55%; the ADCC EC50 [ng/ml], DB (DLCL) cells amounted to 0.24 ng/mL. In the assay with human CD20 (human) [8], this molecule returned an ADCC EC50 [ng/ml], Daudi (Burkitt) cells of 0.041 ng/mL; an ADCC EC50 [ng/ml], Farage (DLCL) cells of 0.0113 ng/mL; an ADCC EC50 [ng/ml], JVM-2 (CLL) cells of 0.0586 ng/mL; an ADCC EC50 [ng/ml], JVM-13 (CLL) cells of 0.0317 ng/mL. Also, in the assay with human CD20 (human) [8], the ADCC EC50 [ng/ml], Karpas-1106P cells was found to be 0.0137 ng/mL; the ADCC EC50 [ng/ml], MeC2 (CLL) cells is 0.007 ng/mL; the ADCC EC50 [ng/ml], RL (NHL) cells was found to be 0.0296 ng/mL; the ADCC EC50 [ng/ml], Raji (Burkitt) cells was found to be 0.008 ng/mL. Further, in the assay with human CD20 (human) [8], the ADCC EC50 [ng/ml], Toledo (DLCL) cells turned out to be 0.0319 ng/mL and the EC50, FACS-based ADCC assay with patient CLL samples is 639 to 682 pM. Moreover, the MFI at 1 µg/ml in the assay with human CD20 (human) [9] was found to be 823 MFI.

B1: afucosylated anti-CD19 mAb 16C4 (16C4-afuc) (antibody, IgG1, V domains shown)
VH: EVQLVESGGGLVQPGGSLRLSCAASGFTFSSSWMNWVRQAPGKGLEWVGRIYPGDGDTNYNVKFKGRFTISRDDSKNSLYLQMNSLKTEDTAVYYCARSGFITTVRDFDYWGQGTLVTVSS
VL: EIVLTQSPDFQSVTPKEKVTITCRASESVDTFGISFINWFQQKPDQSPKLLIHEASNQGSGVPSRFSGSGSGTDFTLTINSLEAEDAATYYCQQTKEVPFTFGGGTKVEIK
As for B1, in the assay with human CD19, the “ADCC EC50 [ng/ml], Daudi (Burkitt) cells” value came out at 0.0031 ng/mL; the “ADCC EC50 [ng/ml], Farage (DLCL) cells” value is 0.0141 ng/mL; the “ADCC EC50 [ng/ml], JVM-2 (CLL) cells” value was found to be 0.188 ng/mL; the “ADCC EC50 [ng/ml], JVM-13 (CLL) cells” value is 0.0368 ng/mL. In the assay with human CD19, the “ADCC EC50 [ng/ml], Karpas-422 (NHL) cells” value was 0.0181 ng/mL; the “ADCC EC50 [ng/ml], Karpas-1106P cells” value is 0.009 ng/mL; the “ADCC EC50 [ng/ml], MeC2 (CLL) cells” value came to 0.0039 ng/mL; the “ADCC EC50 [ng/ml], Nalm-6 (ALL) cells” value was found to be 0.0199 ng/mL. Moreover, in the assay with human CD19, the “ADCC EC50 [ng/ml], Namalwa (Burkitt) cells” value was 0.012 ng/mL; the “ADCC EC50 [ng/ml], Oci-LY19 (DLCL) cells” value was 0.0163 ng/mL; the “ADCC EC50 [ng/ml], RL (NHL) cells” value was determined as 0.0073 ng/mL; the “ADCC EC50 [ng/ml], Raji (Burkitt) cells” value stood at 0.003 ng/mL. The “ADCC EC50 [ng/ml], Toledo (DLCL) cells” value with human CD19 was 0.0075 ng/mL.
